Data published in patent publication US20210301005A1 (Genentech, published 2021).
Like-named read-outs stand apart in the source and are kept apart here.

T1: human TGFβ3, mature dimeric form (human, UniProt P10600 301-412)
T1 sequence: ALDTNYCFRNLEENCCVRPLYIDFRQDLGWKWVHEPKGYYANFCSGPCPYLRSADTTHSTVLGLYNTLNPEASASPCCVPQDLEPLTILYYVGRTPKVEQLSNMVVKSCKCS

T2: human TGFβ2, mature receptor-binding domain (human, UniProt P09858 303-414 (pig entry), The mature TGFβ2 is a disulfide-linked homodimer of this 112-residue chain. The 4A11 epitope spans both monomers (p-1207).)
T2 sequence: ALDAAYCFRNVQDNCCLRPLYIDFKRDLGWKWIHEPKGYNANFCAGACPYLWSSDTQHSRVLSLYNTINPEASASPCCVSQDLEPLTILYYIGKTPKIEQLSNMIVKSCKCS


Legend:
[1] = target: T1, human TGFβ3, mature dimeric form; test: cell-based or functional assay
[2] = target: T3, human TGFβ1, mature receptor-binding domain (human, UniProt P01137 279-390); test: cell-based or functional assay
T3 sequence (P01137 279-390 limits assumed): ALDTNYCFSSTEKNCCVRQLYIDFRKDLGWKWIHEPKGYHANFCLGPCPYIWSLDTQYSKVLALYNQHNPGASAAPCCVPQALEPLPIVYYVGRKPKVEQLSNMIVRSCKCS

[3] = target: T2, human TGFβ2, mature receptor-binding …; test: cell-based or functional assay
[4] = target: T1, human TGFβ3, mature dimeric form; test: BIAcore T200
Protocol: (§1) For binding affinity determinations of all humanized 2A10 antibodies, Surface Plasmon Resonance (SPR) measurement with a BIAcore™-T200 instrument was used. Briefly, series S CM5 biosensor chip with protein A was first applied to capture each humanized 2A10 variant to achieve approximately 100 response units (RU) on each flow cell, following by injection of 3-fold serial dilutions of human TGFβ1, TGFβ2 or TGFβ3 (0.02 nM to 5 nM) in HBS-EP buffer (0.01M HEPES pH 7.4, 0.15M NaCl, 3 mM EDTA and 0.05% v/v surfactant P20) at 25° C. with a flow rate of 50 μl/min for kinetics measurement. Association rates (ko.) and dissociation rates (koff) were calculated using a simple one-to-one Langmuir binding model (BIAcore T200 evaluation software version 2.0) to determine the equilibrium dissociation constant (KD), which was calculated as the ratio koff/kₒₙ.
(§2) Binding affinity determinations of all humanized 4A11 antibodies were performed using SPR measurement with a BIAcore™-T200 instrument, as described above in Example 6 ([…]).

[5] = target: T2, human TGFβ2, mature receptor-binding …; test: BIAcore T200
Protocol: as §1, §2

[6] = target: T1, human TGFβ3, mature dimeric form; test: cell-based or functional assay; remark: listed apart in the source
[7] = target: T3, human TGFβ1, mature receptor-binding …; test: cell-based or functional assay; remark: listed apart in the source
[8] = target: T2, human TGFβ2, mature receptor-binding …; test: cell-based or functional assay; remark: listed apart in the source
[9] = target: T2, human TGFβ2, mature receptor-binding …; test: cell-based or functional assay; remark: listed apart in the source

Binder | HEKBlue TGFβ blocking IC50 [1] [pM] | HEKBlue TGFβ blocking IC50 [2] [pM] | HEKBlue TGFβ blocking IC50 [3] [pM] | Kd [4] [pM] | Kd [5] [pM] | HEKBlue TGFβ blocking IC50 [6] [pM] | HEKBlue TGFβ blocking IC50 [7] [pM] | HEKBlue TGFβ blocking IC50 [8] [pM] | fold loss of blocking against h4A11.v7 [9] [fold]
h6F12.v1.1 (antibody, human IgG1, kappa, N297G, V domains shown) VH: EVTLKESGPVLVKPTETLTLTCTVSGFSLTTYNVHWVRQPPGKALEWMGLIWNTGGTRYNSALKSRLTISKDTSKSQVVLTMTNMDPVDTATYYCARDPVPNKWHFDFWGPGTLVTVSS VL: DIQMTQSPSTLSASVGDRVTITCLASEDIYSNLAWYQQKPGKAPKLLIYDARSLQDGVPSRFSGSESGPEYTLTISSLQPDDFATYFCQQHHAYPFTFGQGTKVEIKR | > 200000 | > 200000 | 20 |  |  |  |  |  | 
h4A11.v7.8 (antibody, human IgG1, kappa, N297G) heavy: not shown light: EAVLTQSPGTLSLSPGERATLSCQSSQSVYNNNYLSWFQQKPGQPPRLLIYGASTLTSGVPDRFSGSGSGTDFTLTISRLEPEDFAVYYCAGGYSGSSDKYAFGGGTKVEIKRTVAAPSVFIFPPSDEQLKSGTASVVCLLNNFYPREAKVQWKVDNALQSGNSQESVTEQDSKDSTYSLSSTLTLSKADYEKHKVYACEVTHQGLSSPVTKSFNRGEC |  |  |  | 5.3 | 4.5 | 30 | > 200000 | 60 | 
h4A11.v7.3 (antibody, human IgG1, kappa, N297G) heavy: not shown light: EAVLTQSPGTLSLSPGERATLSCQSSQSVYNNNYLSWFQQKPGQPPRLLIYGASTLTSGVPDRFSGSGSGTDFTLTISRLEPEDFAVYYCAGGYSGSSDKYAFGGGTKVEIKRTVAAPSVFIFPPSDEQLKSGTASVVCLLNNFYPREAKVQWKVDNALQSGNSQESVTEQDSKDSTYSLSSTLTLSKADYEKHKVYACEVTHQGLSSPVTKSFNRGEC |  |  |  |  |  | 30 | > 33000 | 30 | 
h4A11.v7.14 (antibody, human IgG1, kappa, N297G, V domains shown) VH: EQQLQESGPGLVKPSETLSLTCTVTGFSLSSYTVNWVRQPAGKGLEWIGYISYGGSAYYASWANGRFTISKDSSKNQVSLKLSSVTAADTAVYYCARHMQVGGAPTGSMAAFDPWGPGTLVTVSS VL: EAVLTQSPGTLSLSPGERATLSCQSSQSVYNNNYLSWFQQKPGQPPRLLIYGASTLTSGVPDRFSGSGSGTDFTLTISRLEPEDFAVYYCAGGYSGSSDKYAFGGGTKVEIKR |  |  |  | 5.5 | 4.9 | 40 | > 200000 | 350 | 4
h4A11.v7.4 (antibody, V domains shown) VH: EQQLQESGPGLVKPSETLSLTCTVTGFSLSSYTVNWVRQPAGKGLEWIGYISYGGSAYYASWANGRFTISKDSSKNQVSLKLSSVTAADTAVYFCARHMQVGGAPTGSMAAFDPWGPGTLVTVSS VL: EIVLTQSPGTLSLSPGERATLSCQSSQSVYNNNYLSWFQQKPGQPPRLLIYGASTLTSGVPDRFSGSGSGTDFTLTISRLEPEDFAVYYCAGGYSGSSDKYAFGGGTKVEIK |  |  |  | 4.3 | 6.4 | 50 | > 200000 | 10 | 
h4A11.v7.7 (antibody, V domains shown) VH: EQQLQESGPGLVKPSETLSLTCTVTGFSLSSYTVNWVRQPAGKGLEWIGYISYGGSAYYASWANGRFTISKDSSKNQVSLKLSSVTAADTAVYFCARHMQVGGAPTGSMAAFDPWGPGTLVTVSS VL: EAVLTQSPGTLSLSPGERATLSCQSSQSVYNNNYLSWFQQKPGQPPRLLIYGASTLTSGIPDRFSGSGSGTDFTLTISRLEPEDFAVYYCAGGYSGSSDKYAFGGGTKVEIK |  |  |  | 6.1 | 6.3 | 40 | > 200000 | 40 | 
h4A11.v7.6 (antibody, V domains shown) VH: EQQLQESGPGLVKPSETLSLTCTVTGFSLSSYTVNWVRQPAGKGLEWIGYISYGGSAYYASWANGRFTISKDSSKNQVSLKLSSVTAADTAVYFCARHMQVGGAPTGSMAAFDPWGPGTLVTVSS VL: EAVLTQSPGTLSLSPGERATLSCQSSQSVYNNNYLSWFQQKPGQAPRLLIYGASTLTSGVPDRFSGSGSGTDFTLTISRLEPEDFAVYYCAGGYSGSSDKYAFGGGTKVEIK |  |  |  | 6.5 | 5.8 | 10 | > 200000 | 10 | 

Now from value to binder:

HEKBlue TGFβ blocking IC50 [1] [pM] | HEKBlue TGFβ blocking IC50 [2] [pM] | HEKBlue TGFβ blocking IC50 [3] [pM] | Kd [4] [pM] | Kd [5] [pM] | HEKBlue TGFβ blocking IC50 [6] [pM] | HEKBlue TGFβ blocking IC50 [7] [pM] | HEKBlue TGFβ blocking IC50 [8] [pM] | fold loss of blocking against h4A11.v7 [9] [fold] | Binder
 |  |  |  |  | 30 | > 33000 | 90 |  | h4A11.v7.1 (antibody, human IgG1, kappa, N297G) heavy: not shown light: EAVLTQSPGTLSLSPGERATLSCQSSQSVYNNNYLSWFQQKPGQPPRLLIYGASTLTSGVPDRFSGSGSGTDFTLTISRLEPEDFAVYYCAGGYSGSSDKYAFGGGTKVEIKRTVAAPSVFIFPPSDEQLKSGTASVVCLLNNFYPREAKVQWKVDNALQSGNSQESVTEQDSKDSTYSLSSTLTLSKADYEKHKVYACEVTHQGLSSPVTKSFNRGEC
 |  |  |  |  | 10 | > 33000 | 30 |  | h4A11.v7.2 (antibody, human IgG1, kappa, N297G) heavy: not shown light: EAVLTQSPGTLSLSPGERATLSCQSSQSVYNNNYLSWFQQKPGQPPRLLIYGASTLTSGVPDRFSGSGSGTDFTLTISRLEPEDFAVYYCAGGYSGSSDKYAFGGGTKVEIKRTVAAPSVFIFPPSDEQLKSGTASVVCLLNNFYPREAKVQWKVDNALQSGNSQESVTEQDSKDSTYSLSSTLTLSKADYEKHKVYACEVTHQGLSSPVTKSFNRGEC
 |  |  | 6.5 | 6 | 30 | > 200000 | 10 |  | h4A11.v7.12 (antibody, human IgG1, kappa, N297G, V domains shown) VH: EQQLQESGPGLVKPSETLSLTCTVTGFSLSSYTVNWVRQPAGKGLEWIGYISYGGSAYYASWANGRFTISKDTSKNQVSLKLSSVTAADTAVYFCARHMQVGGAPTGSMAAFDPWGPGTLVTVSS VL: EAVLTQSPGTLSLSPGERATLSCQSSQSVYNNNYLSWFQQKPGQPPRLLIYGASTLTSGVPDRFSGSGSGTDFTLTISRLEPEDFAVYYCAGGYSGSSDKYAFGGGTKVEIKR
 |  |  | 6.8 | 5.6 | 20 | > 200000 | 20 |  | h4A11.v7.10 (antibody, human IgG1, kappa, N297G, V domains shown) VH: EQQLQESGPGLVKPSETLSLTCTVTGFSLSSYTVNWVRQPAGKGLEWIGYISYGGSAYYASWANGRVTISKDSSKNQVSLKLSSVTAADTAVYFCARHMQVGGAPTGSMAAFDPWGPGTLVTVSS VL: EAVLTQSPGTLSLSPGERATLSCQSSQSVYNNNYLSWFQQKPGQPPRLLIYGASTLTSGVPDRFSGSGSGTDFTLTISRLEPEDFAVYYCAGGYSGSSDKYAFGGGTKVEIKR
 |  |  | 4.8 | 4.7 | 20 | > 200000 | 90 |  | h4A11.v7.15 (antibody, human IgG1, kappa, N297G) heavy: not shown light: EAVLTQSPGTLSLSPGERATLSCQSSQSVYNNNYLSWFQQKPGQPPRLLIYGASTLTSGVPDRFSGSGSGTDFTLTISRLEPEDFAVYYCAGGYSGSSDKYAFGGGTKVEIKRTVAAPSVFIFPPSDEQLKSGTASVVCLLNNFYPREAKVQWKVDNALQSGNSQESVTEQDSKDSTYSLSSTLTLSKADYEKHKVYACEVTHQGLSSPVTKSFNRGEC
 |  |  | 5.7 | 4.9 | 20 | > 200000 | 80 |  | h4A11.v7.9 (antibody, human IgG1, kappa, N297G, V domains shown) VH: EQQLQESGPGLVKPSETLSLTCTVTGFSLSSYTVNWIRQPAGKGLEWIGYISYGGSAYYASWANGRFTISKDSSKNQVSLKLSSVTAADTAVYFCARHMQVGGAPTGSMAAFDPWGPGTLVTVSS VL: EAVLTQSPGTLSLSPGERATLSCQSSQSVYNNNYLSWFQQKPGQPPRLLIYGASTLTSGVPDRFSGSGSGTDFTLTISRLEPEDFAVYYCAGGYSGSSDKYAFGGGTKVEIKR
